Assay results taken from US11795454B2, “Targeted delivery system” (Cedars-Sinai Medical Center, priority 2009, dated 2023).
“Also recorded” adds a separate entry of the source.

Tests used:
[1] = mouse, in vivo
Description: Control (saline-injected) mice were euthanized early due to tumor ulceration, in compliance with IACUC policy. […] FIG. 30E, TUNEL staining and quantification in liver and kidney tissue obtained from treated mice. Micrographs obtained at 20× magnification (left set of panels) show fluorescently-stained nuclei in apoptotic cells (delineated areas are enlarged in micrographs to the right). Graph summarizes relative fluorescence intensities of each treated tissue (N>200 fields per treatment).
Fixed, sectioned tissues were processed by incubation in a dry 60° C. oven for 1 h followed by sequential submersion in xylenes for 4 min×5, then hydration in 100%, 95%, 90%, 80%, 70% ethanol for 3 min, 2 times each and final submersion in water. After Proteinase K (20 ug/ml in 10 mM Tris pH 7.8) incubation and rinsing in PBS, sections were treated for TUNEL staining following the manufacturer's instructions (XXX) and assessed by confocal fluorescence imaging. Here, 10 TUNEL images at different locations per tissue were acquired using a Leica confocal SPE microscope (20×, ex: 488 nm, and em: 530 nm). Central regions of each tissue were imaged to avoid fixation artifacts. Nuclear fluorescence intensities, reflective of DNA fragmentation, were measured and averaged using ImageJ.

[2] = HerDox stability in storage, ultrafiltration; format: physicochemical; conditions: 4° C., RT, or 37° C. over a 12 day period
Description: FIG. 34A, HerDox stability in different storage conditions. HerDox was incubated at indicated times and temperatures was applied to a 10K mwco ultrafiltration membrane every other day, and retentate and filtrate A480 measured to determine relative Dox retention or release from complexes, respectively. […] FIG. 34B, Assessing stability in serum-containing media by ultrafiltration. HerDox immobilized on Ni-NTA beads (Qiagen Inc., Valencia. CA, USA) by incubation on ice for 2 h with agitation followed by free HerDox removal via bead pelleting/washing in HBS received 10% fetal bovine serum (FBS), to mimic cell culture conditions, and incubated at 37° C. with agitation for the indicated time-points. At each time-point, samples were pelleted and mean A480±SD (N=3) of supernatants (Released) and bead eluates (Retained) were measured. […] Relative Dox release or retention in serum is expressed as normalized to control (corresponding serum-lacking sample). […] Dox fluorescence (top panel) was visualized by UV excitation. […] Dox (1.6 nmoles) was added to serum coated wells and incubated for 30 min at 37° C. with agitation before supernatants were removed and the wells washed once with HBS before fluorescence spectra were measured for pre-incubation sample (Input), supernatant (Free) and wells (Serum-bound). Fluorescence spectra were obtained at Ex 485 nm/Em 520-750 nm with a 515 nm cutoff filter. […]

[3] = CryoEM of HerDox particles; format: physicochemical; conditions: mostly round particles
Description: Sample preparation and imaging was performed by NanoImaging Services, Inc., La Jolla, CA, USA.
CryoEM was performed by NanoImaging Services, Inc. (La Jolla, CA, USA) implementing the following procedures (provided by NanoImaging Services, Inc.): Samples were preserved in vitrified ice supported by carbon coated holey carbon films on 400 mesh copper grids. All samples were prepared by applying a 3 μL drop of undiluted sample suspension to a cleaned grid, blotting away with filter paper and immediately proceeding with vitrification in liquid ethane. Grids were stored under liquid Nitrogen until transferred to the electron microscope for imaging. All grids were prepared the day the sample was delivered (complexes were assembled immediately before delivery). Electron microscopy was performed using an FEI Tecnai T12 electron microscope, operating at 120 KeV equipped with an FEI Eagle 4K×4K CCD camera. Vitreous ice grids were transferred into the electron microscope using a stage that maintains the grids at below −170 C. Images of the grid were acquired at multiple scales to assess the overall distribution of the specimen. After identifying potentially suitable target areas for imaging at lower magnifications, higher magnification images were acquired at nominal magnifications of 52,000× (0.21 nm/pixel) and 21,000× (0.50 nm/pixel). […]

[4] = Stability in complete cell culture media; format: in vitro ADME; conditions: up to 24 h
Description: FIG. 34A, HerDox stability in different storage conditions. HerDox was incubated at indicated times and temperatures was applied to a 10K mwco ultrafiltration membrane every other day, and retentate and filtrate A480 measured to determine relative Dox retention or release from complexes, respectively. […] FIG. 34B, Assessing stability in serum-containing media by ultrafiltration. HerDox immobilized on Ni-NTA beads (Qiagen Inc., Valencia. CA, USA) by incubation on ice for 2 h with agitation followed by free HerDox removal via bead pelleting/washing in HBS received 10% fetal bovine serum (FBS), to mimic cell culture conditions, and incubated at 37° C. with agitation for the indicated time-points. At each time-point, samples were pelleted and mean A480±SD (N=3) of supernatants (Released) and bead eluates (Retained) were measured. […] Relative Dox release or retention in serum is expressed as normalized to control (corresponding serum-lacking sample). […] Dox fluorescence (top panel) was visualized by UV excitation. […] Dox (1.6 nmoles) was added to serum coated wells and incubated for 30 min at 37° C. with agitation before supernatants were removed and the wells washed once with HBS before fluorescence spectra were measured for pre-incubation sample (Input), supernatant (Free) and wells (Serum-bound). Fluorescence spectra were obtained at Ex 485 nm/Em 520-750 nm with a 515 nm cutoff filter.

[5] = Cardiac function (echocardiography) and myocardial histology of treated mice
Description: Histology of myocardia from treated mice. Micrographs show representative H&E stained specimens from treated mice.
Female immunodeficient (nu/nu) mice (6-8 weeks; Charles River Laboratories International, Wilmington, MA, USA) received subcutaneous bilateral flank injections of 1×10^7 indicated cells and monitored until tumors reached ˜200-300 mm3, at which point the following treatments were initiated. […] To assess therapeutic efficacy, a new group of tumor-bearing mice received daily i.v. (tail vein) injections of HerDox or Dox at indicated doses for 7 days followed by continued monitoring of tumor volumes (assessed by measuring tumor length and width using calipers, and applying LxW2), animal weights, and heart function. […] Cardiac function in anesthetized mice was evaluated by a Vevo 770 High-Frequency Ultrasound system (VisualSonics, Toronto, Canada). Heart rate and body temperature were monitored. Superficial hair was removed from the region of interest with a depilatory cream (Nair) before imaging. The 2-dimensional guided M-mode images of the left ventricle were obtained in the short-axis view at the papillary level with the mouse in the supine position. All primary measurements were traced manually and digitized by goal-directed software installed within the echocardiograph. Three beats were averaged for each measurement. All measurements were done from leading edge to leading edge according to the American Society of Echocardiography guidelines. At animal study completion, tissue harvested from euthanized mice were fixed in 4% paraformaldehyde/PBS at 4° C. for 24 h followed by transfer into 20% sucrose/PBS and storage at −80° C. before immunohistochemical processing. Specimens and hematoxylin/eosin staining were prepared by AML Laboratories, Inc., Baltimore, MD, USA.

[6] = Stability in blood, ultrafiltration; format: in vitro ADME; conditions: 1 h at 37° C. in mouse blood
Text: FIG. 26A. Stability in blood. […] N=3. […] FIG. 26C. Assessing Dox retention in serum.

In the case of `COc1cccc2c1C(=O)c1c(O)c3c(c(O)c1C2=O)C[C@@](O)(C(=O)CO)C[C@@H]3O[C@H]1C[C@H](N)[C@H](O)[C@H](C)O1.Cl` [Dox, Doxorubicin-HCl, reference compound], the “apoptosis in the kidney (TUNEL)” value [1] is reported as “Neither Dox nor HerDox showed substantial apoptosis” and the “apoptosis in the liver (TUNEL)” value [1] is reported as “marked apoptosis”.

B1: HerDox: self-assembled nanoparticle of oligonucleotide duplex, doxorubicin and HerPBK10 (conjugate)
chain: LPPRLKEMKSQESAAGSKLVLRCETSSEYSSLRFKWFKNGNELNRKNKPQNIKIQKKPGKSELRINKASLADSGEYMCKVISKLGNDSASANITIVESNEIITGMPASTEGAYVSSESPIRISVSTEGANTSSSTSTSTTGTSHLVKCAEKEKTFCVNGGECFMVKDLSNPSRYLCKCQPGFTGARCTENVPMKVQNQEKAEELYMRRAAMYEEGPPPSYESVVSAAPVAAALGSPFDAPLDPPFVPPRYLRPTGGRNSIRYSELAPLFDTTRVYLVDNKSTDVASLNYQNDHSNFLTTVIQNNDYSPGEASTQTINLDDRSHWGGDLKTILHTNMPNVNEFMFTNKFKARVMVSRLPTKDNQVELKYEWVEFTLPEGNYSETMTIDLMNNAIVEHYLKVGRQNGVLESDIGVKFDTRNFRLGFDPVTGLVMPGVYTNEAFHPDIILLPGCGVDFTHSRLSNLLGIRKRQPFQEGFRITYDDLEGGNIPALLDVDAYQASLKDDTEQGGGGAGGSNSSGSGAEENSNAAAAAMQPVEDMNDHAIRGDTFATRAEEKRAEAEAAAEAAAPAAQPEVEKPQKKPVIKPLTEDSKKRSYNLISNDSTFTQYRSWYLAYNYGDPQTGIRSWTLLCTPDVTCGSEQVYWSLPDMMQDPVTFRSTRQISNFPVVGAELLPVHSKSFYNDQAVYSQLIRQFTSLTHVFNRFPENQILARPPAPTITTVSENVPALTDHGTLPLRNSIGGVQRVTITDARRRTCPYVYKALGIVSPRVLSSRTFKKKKKKKKKK
For B1, the “Dox release in storage” value [2] was “no detectable Dox release”, the particle diameter [3] was ~10 nm and the “loss of Dox in complete cell culture media” value [4] was “no loss of Dox from the complex”. The myocardial histology ([5]; H&E) was “normal cardiac morphology”, the “stroke volume, cardiac output, left ventricular internal dimension and volume” value ([5]; echocardiography 25 days following injections, 0.004 mg/kg) was “no effect on these measurements; also recorded: no cardiac dysfunction or histological damage” and the “Dox release in blood (filtrate/retentate fluorescence)” value [6] was “no detectable fluorescence in filtrates nor loss from retentates”.
